IntAct's records for PubMed 9162036

Molecular target: ap2m1_rat Ap2m1 (UniProt P84092)
Sequence (P84092 whole entry): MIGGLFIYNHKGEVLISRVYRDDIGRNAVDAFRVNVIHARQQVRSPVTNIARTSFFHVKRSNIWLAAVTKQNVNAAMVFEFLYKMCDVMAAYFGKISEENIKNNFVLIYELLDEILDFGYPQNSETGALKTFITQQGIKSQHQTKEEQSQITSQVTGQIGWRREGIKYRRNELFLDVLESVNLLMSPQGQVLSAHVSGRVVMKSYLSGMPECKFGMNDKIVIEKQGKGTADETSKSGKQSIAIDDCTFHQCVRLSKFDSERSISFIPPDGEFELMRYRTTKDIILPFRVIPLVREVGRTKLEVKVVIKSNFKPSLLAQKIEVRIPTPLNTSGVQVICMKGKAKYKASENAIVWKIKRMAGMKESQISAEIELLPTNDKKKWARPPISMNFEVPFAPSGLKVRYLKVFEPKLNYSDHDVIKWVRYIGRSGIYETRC

Chain of Trans-Golgi network integral membrane protein TGN38 (Rattus norvegicus (Rat)), P19814 S348A (P19814 whole entry S348A): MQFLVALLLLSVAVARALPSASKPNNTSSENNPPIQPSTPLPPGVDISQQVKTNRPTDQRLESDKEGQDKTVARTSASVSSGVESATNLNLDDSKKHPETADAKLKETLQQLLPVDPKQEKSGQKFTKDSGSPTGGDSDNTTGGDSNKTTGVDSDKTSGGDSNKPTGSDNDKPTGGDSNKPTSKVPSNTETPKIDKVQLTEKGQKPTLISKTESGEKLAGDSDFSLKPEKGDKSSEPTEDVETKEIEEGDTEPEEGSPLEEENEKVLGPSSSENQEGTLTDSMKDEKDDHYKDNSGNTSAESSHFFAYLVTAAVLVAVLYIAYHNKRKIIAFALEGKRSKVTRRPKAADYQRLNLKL
Chain of Trans-Golgi network integral membrane protein TGN38 (Rattus norvegicus (Rat)), P19814 Y350A (P19814 whole entry Y350A): as the sequence (P19814 whole entry S348A) above, with A348S, Y350A counted along it

Row | effect of a mutation on the interaction | Substance
1 | decreasing interaction | Trans-Golgi network integral membrane protein TGN38 (Rattus norvegicus (Rat)), P19814 S348A
2 | decreasing interaction | Trans-Golgi network integral membrane protein TGN38 (Rattus norvegicus (Rat)), P19814 Y350A
